Experimental data as given in patent publication US8304519B2, “Compositions and methods for modulating dopamine neurotransmission” (Centre for Addiction and Mental Health, priority 2005, dated 2012).

Tests used:
[1] = molecular target: T1, D2-DAT coupling (Homo sapiens, UniProt P14416); assay: [3H]DA uptake in rat midbrain primary cultures infected with DAT and D2 adenovirus; format: cell-based; conditions: 10 μM for 30 minutes, cultured neurons
T1 construct: expressed in transfected cells; host or cells: primary rat midbrain neuronal cultures, adenoviral infection
T1 sequence (P14416 1-414 isoform P14416-2): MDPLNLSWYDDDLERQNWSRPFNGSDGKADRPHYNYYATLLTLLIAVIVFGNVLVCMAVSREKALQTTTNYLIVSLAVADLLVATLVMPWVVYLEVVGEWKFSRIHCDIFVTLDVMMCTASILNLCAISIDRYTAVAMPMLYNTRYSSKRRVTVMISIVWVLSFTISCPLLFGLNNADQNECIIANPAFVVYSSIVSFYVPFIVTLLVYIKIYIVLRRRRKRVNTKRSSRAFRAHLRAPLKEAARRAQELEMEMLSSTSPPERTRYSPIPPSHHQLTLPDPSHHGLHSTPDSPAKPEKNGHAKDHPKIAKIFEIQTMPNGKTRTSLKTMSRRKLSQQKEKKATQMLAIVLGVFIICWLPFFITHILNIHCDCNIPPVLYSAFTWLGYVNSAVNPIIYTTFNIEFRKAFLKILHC
Method: Measurement of DA uptake was performed on intact cells as previously described (30). Briefly, 2-4 days following transfection in 24-well plates (˜2×10^5 cells seeded per well) medium was removed and wells were rinsed with 0.5 mL of uptake buffer (5 mM Tris, 7.5 mM HEPES, 120 mM NaCl, 5.4 mM KCl, 1.2 mM CaCl2, 1.2 mM MgSO4, 1 mM ascorbic acid, 5 mM glucose, pH 7.1). […] (final concentration) and incubated for 10 min at room temperature in a total volume of 0.5 mL. Nonspecific [3H] DA (37-53 Ci/mmol) uptake was defined in the presence of 10 μM mazindol. Wells were rinsed twice with 0.5 mL of uptake buffer and cells were solubilized in 0.5 mL of 1% SDS and collected to measure incorporated radioactivity using a Beckman liquid scintillation counter (LS 6000SC).
(§1) Midbrain cultures from postnatal day 2 rats are prepared by dissection of ventrolateral sections of the mesencephalon (avoiding medial tissue regions) in ice-cold HBSS. Tissue is placed in cold neurobasal/B27 medium (Invitrogen) supplemented with 0.5 mM L-glutamine, and 10 ng/mL bFGF (culture medium). […] The single cell suspensions are counted with a hemocytometer for plating at desired densities onto poly-D-Lysine (100 ug/mL) coated tissue culture plates of varying formats or, onto coated glass cover-slips for microscopy. […]

[2] = Amphetamine-induced hyper-locomotor activity; format: in vivo; conditions: ip injection, 3 nmol/g
Method: Tests of locomotor activity were conducted in four clear Plexiglas activity chambers (Med Associates Inc., St Albans, Vt.) measuring 43 cm long, 43 cm wide, and 30 cm high. An array of 16×16 photodetectors, spaced 2.5 cm apart, and positioned 2.5 cm above the floor of the chamber was used to detect horizontal locomotor activity as distance traveled. Prior to testing, all mice were first habituated to the apparatus by placing them in the activity chambers for 1 h on three consecutive days. On test days, mice were placed in the activity chamber for 1 h prior to receiving an IP injection of TAT (SEQ ID NO:14), TAT-DAT[NT1-1] (SEQ ID NO:12), or TAT-DAT[NT1-2] peptide (SEQ ID NO: 13). Locomotor activity was then measured for the next 180 min.

[3] = systemically injected; cited from earlier work
[4] = molecular target: T2, [35S]-D2[IL3-2] (Homo sapiens, UniProt P14416); assay: In vitro binding assay of GST-DAT fusion proteins with [35S]-D2[IL3-2] probe; conditions: autoradiography
T2 construct: made in house
T2 sequence (P14416 271-373): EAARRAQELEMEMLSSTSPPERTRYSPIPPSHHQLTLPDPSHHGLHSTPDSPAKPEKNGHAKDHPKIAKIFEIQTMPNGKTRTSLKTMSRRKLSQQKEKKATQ
Method: (§2) Glutathione beads carrying GST fusion proteins (DAT[NT1] (SEQ ID NO:7), DAT[NT2] (SEQ ID NO:9), DAT[NT3] (SEQ ID NO: 10)) or GST (10-20 μg each) alone was incubated with [35S]-methionine-labelled D2[IL3-2] probe (SEQ ID NO:3) respectively. The beads were then washed 4-6 times with PBS containing 0.5% Triton X-100 and eluted with 10 mM glutathione elution buffer. Eluates were separated by SDS-PAGE and visualized by autoradiography.

[5] = molecular target: T3, D2 receptor (Homo sapiens, UniProt P14416); format: cell-based; parameters: expressed in transfected cells; host or cells: HEK-293 cells co-expressing D2 and DAT; conditions: pre-incubation 150-200 ng/ml, HEK-293 cells co-expressing D2 and DAT
T3 sequence (P14416 1-414 isoform P14416-2): as the sequence (P14416 1-414 isoform P14416-2) above
Method: Measurement of DA uptake was performed on intact cells as previously described (30). Briefly, 2-4 days following transfection in 24-well plates (˜2×10^5 cells seeded per well) medium was removed and wells were rinsed with 0.5 mL of uptake buffer (5 mM Tris, 7.5 mM HEPES, 120 mM NaCl, 5.4 mM KCl, 1.2 mM CaCl2, 1.2 mM MgSO4, 1 mM ascorbic acid, 5 mM glucose, pH 7.1). […] Wells were rinsed twice with 0.5 mL of uptake buffer and cells were solubilized in 0.5 mL of 1% SDS and collected to measure incorporated radioactivity using a Beckman liquid scintillation counter (LS 6000SC).

[6] = molecular target: T3, D2 receptor; assay: cAMP accumulation in cells co-expressing D2 with DAT; format: cell-based; parameters: expressed in transfected cells; host or cells: HEK-293 cells co-expressing D2 and DAT; conditions: data not shown
[7] = molecular target: T3, D2 receptor; assay: DA uptake on D2 activation in cultured midbrain neurons infected with D2 and DAT adenoviruses; format: cell-based, rat; parameters: expressed in transfected cells; host or cells: primary rat midbrain neuronal cultures, adenoviral infection
Method: Measurement of DA uptake was performed on intact cells as previously described (30). Briefly, 2-4 days following transfection in 24-well plates (˜2×10^5 cells seeded per well) medium was removed and wells were rinsed with 0.5 mL of uptake buffer (5 mM Tris, 7.5 mM HEPES, 120 mM NaCl, 5.4 mM KCl, 1.2 mM CaCl2, 1.2 mM MgSO4, 1 mM ascorbic acid, 5 mM glucose, pH 7.1). Cells were then preincubated in duplicate with the indicated concentrations of dopaminergic agents (10^−13 to 10^−4 M) 5 min prior to the addition of 0.25 mL of 20 nM [3H]DA (final concentration) and incubated for 10 min at room temperature in a total volume of 0.5 mL. Nonspecific [3H] DA (37-53 Ci/mmol) uptake was defined in the presence of 10 μM mazindol. Wells were rinsed twice with 0.5 mL of uptake buffer and cells were solubilized in 0.5 mL of 1% SDS and collected to measure incorporated radioactivity using a Beckman liquid scintillation counter (LS 6000SC).
as §1, with “HBSS.” for “HBSS. Tissue is placed in cold neurobasal/B27 medium (Invitrogen) supplemented with 0.5 mM L-glutamine, and 10 ng/mL bFGF (culture medium).”

[8] = molecular target: T3, D2 receptor; assay: Cell-ELISA of DAT membrane expression on D2 activation in cultured midbrain neurons; format: cell-based, rat; parameters: expressed in transfected cells; host or cells: primary rat midbrain neuronal cultures, adenoviral infection; conditions: cultured midbrain neurons infected with D2 and DAT adenoviruses
Method: Cell-ELISA assays (colorimetric assays) were done essentially as previously described (Lee et al., 2002a). Neurons or HEK-293T cells were transiently transfected with the indicated cDNA constructs by the Lipofectamine 2000 (InVitrogen) method (6-10 μg of each indicated cDNA per 7.5×10^6 cells), and equally distributed to two 6-well plates (35 mm/well), and grown for 2-4 days. The same density of co-transfected cells were fixed in 4% paraformaldehyde for 10 min in the absence (non-permeabilized conditions) or the presence (permeabilized conditions) of 1% Triton X-100. Cells were incubated with DAT antibody against the extracellular loop (Chemicon) for the purpose of labeling the proteins on the cell surface under non-permeabilized conditions or the entire transporter pool under permeabilized conditions. […] The cell surface expression of DAT was presented as the ratio of colorimetric readings under non-permeabilized conditions to those under permeabilized conditions. […]
as §1, with “HBSS.” for “HBSS. Tissue is placed in cold neurobasal/B27 medium (Invitrogen) supplemented with 0.5 mM L-glutamine, and 10 ng/mL bFGF (culture medium).”

[9] = molecular target: T4, D2-DAT direct interaction (Homo sapiens, UniProt P14416); assay: In vitro binding assay, blockade of GST-DAT[NT1] binding to [35S]-D2[IL3-2] by peptides; conditions: co-incubation with purified peptide
T4 construct: made in house; host or cells: bacteria (GST fusion, pGEX4T-3)
T4 sequence (P14416 271-373): T2 sequence (P14416 271-373)
Method: as §2

TAT-DAT[NT1-2] peptide: DAT[NT1-2] (A16-P26) peptide fused to HIV-1 TAT cell-membrane transduction domain (SEQ ID NO:13) (YGRKKRRQRRRAPAKEPNAVGP; HIV virus type 1 TAT protein fused to human dopamine transporter protein (TAT-DAT[NT1-2]))
DAT-mediated DA uptake [1]: did not produce any effects
behavioural effects of amphetamine (hyper-locomotor activity) [2]: reduce

Tyr-Gly-Arg-Lys-Lys-Arg-Arg-Gln-Arg-Arg-Arg [TAT peptide]
time after IP injection at which the blood-brain barrier is penetrated [3]: 1 h

GST fused DAT[NT1]: GST fusion protein encoding DAT M1-P26, MSKSKCSVGLMSSVVAPAKEPNAVGP (SEQ ID NO:7)
hybridization (direct binding) with [35S]-D2[IL3-2] [4]: hybridized

pertussis toxin (PTX)
blockade of quinpirole-induced decrease in DAT-mediated DA uptake [5]: blocked
functional block of the ability of the D2 receptor to inhibit cAMP accumulation [6]: confirmed
blockade of inhibition of DAT-mediated DA uptake by activation of D2 receptor [7]: blocked
blockade of inhibition of DAT membrane expression by activation of D2 receptor [8]: blocked

DAT[NT1-1] (M1-V15) peptide: purified peptide DAT M1-V15, MSKSKCSVGLMSSVV (SEQ ID NO:2) (Human dopamine transporter protein (DAT[NT1-1] M1-V15))
disruption of the interaction between [35S]-D2[IL3-2] and GST fused DAT[NT1] [9]: disrupted
